Reference: article PMC4132724

Biological target: T1, Pot1pN (Schizosaccharomyces pombe, UniProt O13988 1-185)
T1 sequence: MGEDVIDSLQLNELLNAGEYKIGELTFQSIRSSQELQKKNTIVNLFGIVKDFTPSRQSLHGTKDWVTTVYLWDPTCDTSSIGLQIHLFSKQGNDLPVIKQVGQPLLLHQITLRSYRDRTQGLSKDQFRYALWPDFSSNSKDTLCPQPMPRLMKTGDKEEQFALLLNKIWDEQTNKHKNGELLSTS
Experiment: EMSA

GGTCACGGTCACAGGTTACA (ssDNA) [20-mer control (GGTTAC)]
Kd: 66 ± 5 nM

GGTCACGGTCACAGGUTACA (ssDNA, 5-hydroxymethyl-2'-deoxyuridine at position 16 (written U)) [5hmU at T3]
Kd: 67 ± 5.6 nM
